Laboratory results as given in article PMC2172161 (The Journal of Cell Biology, 2004).
Substitutions are numbered along the chain they refer to. Names and notes keep the numbering of the source.

B1: His6Cdc12–Cdc3–Cdc10–Cdc11 complex (complex)
chain 1: MSAATATAAPVPPPVGISNLPNQRYKIVNEEGGTFTVMLCGESGLGKTTFINTLFQTVLKRADGQQHRQEPIRKTVEIDITRALLEEKHFELRVNVIDTPGFGDNVNNNKAWQPLVDFIDDQHDSYMRQEQQPYRTKKFDLRVHAVLYFIRPTGHGLKPIDIETMKRLSTRANLIPVIAKADTLTAQELQQFKSRIRQVIEAQEIRIFTPPLDADSKEDAKSGSNPDSAAVEHARQLIEAMPFAIVGSEKKFDNGQGTQVVARKYPWGLVEIENDSHCDFRKLRALLLRTYLLDLISTTQEMHYETYRRLRLEGHENTGEGNEDFTLPAIAPARKLSHNPRYKEEENALKKYFTDQVKAEEQRFRQWEQNIVNERIRLNGDLEEIQGKVKKLEEQVKSLQVKKSHLK
chain 2: MSLKEEQVSIKQDPEQEERQHDQFNDVQIKQESQDHDGVDSQYTNGTQNDDSERFEAAESDVKVEPGLGMGITSSQSEKGQVLPDQPEIKFIRRQINGYVGFANLPKQWHRRSIKNGFSFNLLCVGPDGIGKTTLMKTLFNNDDIEANLVKDYEEELANDQEEEEGQGEGHENQSQEQRHKVKIKSYESVIEENGVKLNLNVIDTEGFGDFLNNDQKSWDPIIKEIDSRFDQYLDAENKINRHSINDKRIHACLYFIEPTGHYLKPLDLKFMQSVYEKCNLIPVIAKSDILTDEEILSFKKTIMNQLIQSNIELFKPPIYSNDDAENSHLSERLFSSLPYAVIGSNDIVENYSGNQVRGRSYPWGVIEVDNDNHSDFNLLKNLLIKQFMEELKERTSKILYENYRSSKLAKLGIKQDNSVFKEFDPISKQQEEKTLHEAKLAKLEIEMKTVFQQKVSEKEKKLQKSETELFARHKEMKEKLTKQLKALEDKKKQLELSINSASPNVNHSPVPTKKKGFLR
chain 3: MDPLSSVQPASYVGFDTITNQIEHRLLKKGFQFNIMVVGQSGLGKSTLINTLFASHLIDSATGDDISALPVTKTTEMKISTHTLVEDRVRLNINVIDTPGFGDFIDNSKAWEPIVKYIKEQHSQYLRKELTAQRERFITDTRVHAILYFLQPNGKELSRLDVEALKRLTEIANVIPVIGKSDTLTLDERTEFRELIQNEFEKYNFKIYPYDSEELTDEELELNRSVRSIIPFAVVGSENEIEINGETFRGRKTRWSAINVEDINQCDFVYLREFLIRTHLQDLIETTSYIHYEGFRARQLIALKENANSRSSAHMSSNAIQR
chain 4: MSGIIDASSALRKRKHLKRGITFTVMIVGQSGSGRSTFINTLCGQQVVDTSTTILLPTDTSTEIDLQLREETVELEDDEGVKIQLNIIDTPGFGDSLDNSPSFEIISDYIRHQYDEILLEESRVRRNPRFKDGRVHCCLYLINPTGHGLKEIDVEFIRQLGSLVNIIPVISKSDSLTRDELKLNKKLIMEDIDRWNLPIYNFPFDEDEISDEDYETNMYLRTLLPFAIIGSNEVYEMGGDVGTIRGRKYPWGILDVEDSSISDFVILRNALLISHLHDLKNYTHEILYERYRTEALSGESVAAESIRPNLTKLNGSSSSSTTTRRNTNPFKQSNNINNDVLNPASDMHGQSTGENNETYMTREEQIRLEEERLKAFEERVQQELLLKRQELLQREKELREIEARLEKEAKIKQEE
B2: Heterotetrameric complex containing just Cdc12(T48N), but wild-type Cdc3, Cdc10, and Cdc11 (complex)
chain 1: B1 chain 1 with T48N
chain 2: B1 chain 2
chain 3: B1 chain 3
chain 4: B1 chain 4

Target: the molecule itself
Experiment: fluorescence microscopy of purified complexes on slides

| Protein | binding result |
| --- | --- |
| B1 | binds |
| B2 | binds |
